# In paper PMC9060444 (2022):
# T1: human C1s enzyme (activated C1s) (human)
# T1 chain 1: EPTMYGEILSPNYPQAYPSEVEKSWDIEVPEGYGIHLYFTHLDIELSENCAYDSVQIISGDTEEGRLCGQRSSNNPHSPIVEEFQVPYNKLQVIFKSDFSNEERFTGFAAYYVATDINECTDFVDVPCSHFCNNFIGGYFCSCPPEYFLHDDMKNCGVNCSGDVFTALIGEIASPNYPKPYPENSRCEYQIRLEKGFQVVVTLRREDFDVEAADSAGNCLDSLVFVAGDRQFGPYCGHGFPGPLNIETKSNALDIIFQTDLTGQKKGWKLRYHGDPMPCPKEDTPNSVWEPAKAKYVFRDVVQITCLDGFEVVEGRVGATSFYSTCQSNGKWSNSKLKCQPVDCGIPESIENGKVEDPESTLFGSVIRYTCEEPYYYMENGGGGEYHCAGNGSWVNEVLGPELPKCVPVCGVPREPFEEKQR
# T1 chain 2: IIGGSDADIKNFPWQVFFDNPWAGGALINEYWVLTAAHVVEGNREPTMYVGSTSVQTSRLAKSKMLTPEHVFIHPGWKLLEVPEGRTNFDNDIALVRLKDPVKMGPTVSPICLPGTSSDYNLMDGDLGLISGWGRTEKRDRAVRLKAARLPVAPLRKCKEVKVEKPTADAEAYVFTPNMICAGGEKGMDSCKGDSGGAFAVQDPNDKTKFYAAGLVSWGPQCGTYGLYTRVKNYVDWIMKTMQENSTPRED
# B1: tagless ElpQ (natural protein)
# chain: CKNFATGKDIKQNSEGKIKGFVNKILDPVKDKIASSGTKVDEVAKKLQEEEKEELMQGDDPNGSGINPPPVLPENIHNNALVLKAIEQSDGQQEKKVEEAEAKVEENKEKQENTEENIKEKEIIDEQNKQELAKAKEEEQQKEQKRHQEEQQRKAKAEKEKREREEAEQQKRQQEEEEKRQVDNQIKTLIAKIDEINENIDVIKWQTTVGPQGVIDRITGPVYDDFTNGNNSIRETWEGLEEESEDEGLGKLLKELSDARDALRTKLNEGNKPYTGYEEPKLKESVNVSEIKEDLEKLKSKLEEVKKYLKDSSKFEEIKGYISDSQ
# B2: GST-ElpQ (natural protein)
# chain: B1 chain
# Columns and labels:
# [1] = target: human C1s enzyme (activated C1s) (human)
# [2] = target: GST-ElpB (B. burgdorferi strain B31); assay: SPR; Biacore T200; GST-ElpB or GST-ElpQ immobilised on the sensor chip; C1 complex (twofold series 0.6 to 150 nM), C1r or C1s enzyme or proenzyme injected as analyte; steady-state affinity fits; triplicate
# [3] = target: GST-ElpQ (B. burgdorferi strain B31); assay: as above
# [4] = target: human complement C1 complex (human) (UniProt P02745)
# [5] = target: human C1r enzyme (activated C1r) (human); assay: ELISA; ELISA-type binding assay: GST-fusion proteins on wells coated with human C1 complex, C1q, C1r enzyme or C1s enzyme; apparent KD by nonlinear regression (GraphPad Prism)
# [6] = target: human C1s enzyme (activated C1s) (human); assay: as above
# [7] = target: human complement C1 complex (human) (UniProt P02745); assay: as above
# [8] = target: T1, human C1s enzyme (activated C1s); assay: SPR
molecule,measurement,setting,value
tagless ElpB (natural protein),IC50 of inhibition of the cleavage of C2 by C1s enzyme (SDS/PAGE),[1],870 nM
human C1s enzyme (activated C1s),Kd,[2],3.9 nM
same,Kd,[3],4.5 nM
GST-BBK32 (from UniProt O50835 1-354) (natural protein),IC50 of inhibition of C3b deposition from normal human serum on IgM-coated wells (ELISA),[4],29 nM
same,IC50 of inhibition of C5b-9 deposition from normal human serum on IgM-coated wells (ELISA),[4],100 nM
same,IC50 of inhibition of classical-pathway lysis of antibody-sensitised sheep erythrocytes by normal human serum,[4],79 nM
human C1s proenzyme,Kd,[2],270 nM
same,Kd,[3],170 nM
human C1r enzyme (activated C1r),Kd,[2],100 nM
same,Kd,[3],97 nM
GST-ElpQ (natural protein),Kd,[5],11 nM
same,Kd,[6],4.7 nM
same,Kd,[7],3.8 nM
same,IC50 of inhibition of C3b deposition from normal human serum on IgM-coated wells (ELISA),[4],450 nM
same,IC50 of inhibition of C4b deposition from normal human serum on IgM-coated wells (ELISA),[4],260 nM
same,IC50 of inhibition of C5b-9 deposition from normal human serum on IgM-coated wells (ELISA),[4],1000 nM
same,IC50 of inhibition of classical-pathway lysis of antibody-sensitised sheep erythrocytes by normal human serum,[4],1500 nM
GST-ElpB (natural protein),Kd,[5],41 nM
same,Kd,[6],6.7 nM
same,Kd,[7],3.4 nM
same,IC50 of inhibition of C3b deposition from normal human serum on IgM-coated wells (ELISA),[4],570 nM
same,IC50 of inhibition of C4b deposition from normal human serum on IgM-coated wells (ELISA),[4],330 nM
same,IC50 of inhibition of C5b-9 deposition from normal human serum on IgM-coated wells (ELISA),[4],300 nM
same,IC50 of inhibition of classical-pathway lysis of antibody-sensitised sheep erythrocytes by normal human serum,[4],1600 nM
tagless ElpQ (natural protein),"IC50 of inhibition of the cleavage of C2 (685 nM) by C1s enzyme (6.25 nM), SDS/PAGE densitometry of C2b, ElpQ 16 to 0.13 uM, 1 h at 37 C",[1],1400 nM
same,"IC50 of inhibition of the cleavage of C4 (616 nM) by C1s enzyme (6.25 nM), SDS/PAGE densitometry of C4 alpha', ElpQ 25 to 0.20 uM, 1 h at 37 C",[1],11000 nM
human complement C1 complex (from UniProt P02745 23-245; P02746 28-253; P02747 29-245),Kd,[2],5.6 nM
BBK32-C (domain or fragment),IC50 of inhibition of C4b deposition from normal human serum on IgM-coated wells (ELISA); by the table's footnote based on the non-GST-tagged BBK32-C construct,[4],18 nM
B1,Kd,[8],15 nM
B2,Kd,[8],16.5 nM
